Measured values as given in the supplement of paper PMC7877785.
± gives the uncertainty stated by the source.

Test: self-splicing fitness, log relative to wild type (ln ratio); higher = more splicing; Tetrahymena group I intron in knt gene, E. coli kanamycin selection, DiMSum; sequences stand for … in CUCUCU…GGAGGGAAAAGUUAUCAGGCAUGCACCUGGUAGCUAGUCUUUAAACCAAUAGAUUGCAUCGGUUUAAAAGGCAAGACCGUCAAAUUGCGGGAAAGGGGUCAACAGCCGUUCAGUACCAAGUCUCAGGGGAAACUUUGAGAUGGCCUUGCAAAGGGUAUGGUAAUAAGCUGACGGACAUGGUCCUAACCACGCAGCCAAGUCCUAAGUCAACAGAUCUUCUGUUGAUAUGGAUGCAGUUCACAGACUAAAUGUCGGUCGGGGAAGAUGUAUUCUUCUCAUAAGAUAUAGUCGGACCUCUCCUUAAUGGGAGCUAGCGGAUGAAGUGAUGCAACACUGGAGCCGCUGGGAACUAAUUUGUAUGCGAAAGUAUAUUGAUUAGUUUUGGAGUACUCGUGGUCG
Method in brief: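 A randomised library covering all eight P1ex-region intron nucleotides was built with the intron in the knt kanamycin-resistance gene on pET-22b(+) and held in E. coli BL21(DE3). Cells were grown overnight at 37°C or 30°C on LB agar, with or without 25 μg/mL kanamycin, plus 100 μg/mL carbenicillin, 50 μM IPTG and 0.2% rhamnose, and pooled colonies were amplicon-sequenced on an Illumina HiSeq 2500. DiMSum fitness is the error-weighted combination of wild-type-normalised replicate fold changes, kanamycin versus none.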

Sequence	self-splicing fitness (ln) (30 °C)	self-splicing fitness (ln) (37 °C)
UUCCAGCAAUAUUACGCCCC	-2.4 ± 0.25	–
UUCCAGCAAUAUUACGCCCG	-1.33 ± 0.15	-1.23 ± 0.17
UUCCAGCAAUAUUACGCCGA	-0.126 ± 0.13	0.309 ± 0.16
UUCCAGCAAUAUUACGCCGG	-3.4 ± 0.33	-2.98 ± 0.48
UUCCAGCAAUAUUACGCGCU	-3.9 ± 0.3	–
UUCCAGCAAUAUUACGCGGC	-3.73 ± 0.47	-1.38 ± 0.4
UUCCAGCAAUAUUACGCUAG	-2.89 ± 0.17	-1.96 ± 0.2
UUCCAGCAAUAUUACGCUCU	-3.04 ± 0.17	-1.26 ± 0.14
UUCCAGCAAUAUUACGGAAA	-1.86 ± 0.13	-1.34 ± 0.11
UUCCAGCAAUAUUACGGCCG	-2.49 ± 0.29	-0.492 ± 0.24
UUCCAGCAAUAUUACGGCGA	-0.331 ± 0.076	-0.0354 ± 0.097
UUCCAGCAAUAUUACGGCGU	-1.42 ± 0.079	-1.19 ± 0.091
UUCCAGCAAUAUUACGGUGA	-0.226 ± 0.061	0.234 ± 0.077
UUCCAGCAAUAUUACGUAAC	-2.44 ± 0.25	-2.08 ± 0.38
UUCCAGCAAUAUUACGUCGG	-3.28 ± 0.23	-3.13 ± 0.4
UUCCAGCAAUAUUACGUGAA	0.179 ± 0.072	-0.102 ± 0.094
UUCCAGCAAUAUUACGUGCG	-1.88 ± 0.1	-1.59 ± 0.11
UUCCAGCAAUAUUACGUGUC	-2.18 ± 0.086	-1.48 ± 0.098
UUCCAGCAAUAUUACGUUAA	-1.16 ± 0.079	0.606 ± 0.093
UUCCAGCAAUAUUACGUUCG	-2.67 ± 0.16	-1.7 ± 0.23
UUCCAGCAAUAUUACGUUGU	-2.93 ± 0.21	-2.74 ± 0.27
UUCGAGCAAUAUUACGAAUG	-3.37 ± 0.47	-2.26 ± 0.31
UUCGAGCAAUAUUACGAGAG	-3.55 ± 0.44	-2.72 ± 0.48
UUCGAGCAAUAUUACGAGCC	-3.05 ± 0.21	-2.68 ± 0.36
UUCGAGCAAUAUUACGAGUG	-1.81 ± 0.17	-0.223 ± 0.15

Sequence	self-splicing fitness (ln) (30 °C)	self-splicing fitness (ln) (37 °C)
UUCGAGCAAUAUUACGCCCA	-2.1 ± 0.31	-1.15 ± 0.22
UUCGAGCAAUAUUACGCCUC	-3.3 ± 0.4	-1.3 ± 0.4
UUCGAGCAAUAUUACGCGAC	-3.69 ± 0.32	-1.18 ± 0.19
UUCGAGCAAUAUUACGGCCA	–	-0.028 ± 0.31
UUCGAGCAAUAUUACGGCCG	–	-1.41 ± 0.35
UUCGAGCAAUAUUACGGCCU	-3.17 ± 0.33	-2.84 ± 0.35
UUCGAGCAAUAUUACGGGCC	-3.79 ± 0.32	-2.21 ± 0.33
UUCGAGCAAUAUUACGGGGA	-1.7 ± 0.18	-0.829 ± 0.19
UUCGAGCAAUAUUACGGGGG	-2.88 ± 0.3	-2.23 ± 0.42
UUCGAGCAAUAUUACGUAAA	-2.48 ± 0.19	-1.07 ± 0.16
UUCGAGCAAUAUUACGUAAU	-2.06 ± 0.26	-1.9 ± 0.36
UUCGAGCAAUAUUACGUAGA	-3.11 ± 0.16	-1.97 ± 0.17
UUCGAGCAAUAUUACGUCAA	-1.54 ± 0.2	-2.38 ± 0.37
UUCGAGCAAUAUUACGUCCU	-3.78 ± 0.47	-2.4 ± 0.41
UUCGAGCAAUAUUACGUGAA	-1.55 ± 0.27	1.01 ± 0.28
UUCGAGCAAUAUUACGUGGU	-3.49 ± 0.28	-3.18 ± 0.2
UUCUAGCAAUAUUACGAACA	–	-0.35 ± 0.37
UUCUAGCAAUAUUACGACUA	-1.83 ± 0.31	-1.19 ± 0.21
UUCUAGCAAUAUUACGAUGA	-0.819 ± 0.19	-0.0657 ± 0.2
UUCUAGCAAUAUUACGAUGG	-2.49 ± 0.19	-1.02 ± 0.34
UUCUAGCAAUAUUACGAUUC	-1.98 ± 0.34	-2.5 ± 0.49
UUCUAGCAAUAUUACGCACU	-1.79 ± 0.29	-1.69 ± 0.38
UUCUAGCAAUAUUACGCAGG	-3.52 ± 0.4	–
UUCUAGCAAUAUUACGCCGA	-0.96 ± 0.23	0.163 ± 0.25
UUCUAGCAAUAUUACGCGAC	-1.97 ± 0.38	–
